pKd: −log10 of the molar value. A value given as a limit tells only on which side of the number the result lay.

Series [1] relates to VOP 29A-3 (synthetic).
For series [2], the system named is VOP 35A-10 (synthetic).
Series [3] concerns MTS 5A (synthetic).
For series [4], the system named is VOP 32A-6 (synthetic).
For series [5], the system named is VOP 32B-7 (synthetic).
Series [6] has as its system VEGF 1B (synthetic).
Series [7] relates to VOP 30A-4 (synthetic).
Series [8] relates to HUM 19A (synthetic).
Series [9] relates to VOP 28A-2 (synthetic).
Series [10] deals with USX 3A (synthetic).
Series [11] relates to HP38 4A (synthetic).
Series [12] concerns MX1E (synthetic).
In series [13] the test system is BVO 13A (synthetic).

As usually defined, the pKd is the negative decadic logarithm of the Kd, by convention in mol/L. Higher therefore signals a small Kd. With “GAGGCTTGG (double strand) [VOP 29A-3 target]”, the negative logarithm of the Kd (pKd) in [1] was > 10.70.

As for “GCTGGAGCA (double strand) [VOP 35A-10 target]”, the pKd in series [2] was > 10.70.

In turn, “TGGGGGTGG (double strand) [MTS 5A target]” showed a pKd in [3] of 10.15.

Consider “GGGGGTGAC (double strand) [VOP 32 target]”, for which the pKd in series [4] and in [5] was > 10.70 each time.

Regarding “GGGGAGGAT (double strand) [VEGF 1B target]”, the pKd in series [6] is 8.70.

In the case of “GCTGGGGGC (double strand) [VOP 30A-4 target]”, the pKd in series [7] is > 10.70.

In series [8], “TGGGCAGAC (double strand) [HUM 19A target]” showed a pKd of 10.70.

For the sequence “GGGGGCGCT (double strand) [VOP 28A-2 target]”, in series [9], the pKd is > 10.70.

As to “GCCGGGGAG (double strand) [USX 3A target]”, in series [10], the pKd was 10.22.

For “GGDTGGGGG (double strand) [HP38 4A target]”, in [11], the pKd is 9.12.

On to “ATGGACGGG (double strand) [BVO 13A / MX1E target]”, for which the pKd was 8.47 in series [12] and > 10.70 in series [13].

The values are drawn from patent publication US20050267061.
